{"source": "patent US20240374532A1", "key": {"GST-Casp8p41": {"molecular_target": "GST-Casp8p41 (UniProt Q14790)", "assay": "SPR, GST-Bcl-2 R146A over immobilized Casp8p41"}, "GST-Bcl-2 (human) [1]": {"molecular_target": "GST-Bcl-2 (human) (UniProt P10415)", "sequence (P10415 1-218)": "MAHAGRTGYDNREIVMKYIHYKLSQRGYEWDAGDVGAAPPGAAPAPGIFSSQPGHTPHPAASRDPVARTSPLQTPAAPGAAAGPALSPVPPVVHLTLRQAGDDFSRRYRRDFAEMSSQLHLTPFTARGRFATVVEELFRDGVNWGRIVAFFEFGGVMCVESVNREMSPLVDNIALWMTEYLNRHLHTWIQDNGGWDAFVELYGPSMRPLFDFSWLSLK", "assay": "SPR (Biacore 3000), GST-Bcl-2 injected over immobilized GST-Casp8p41, mean of 3 experiments; target Bcl-2"}, "GST-Mcl-1": {"molecular_target": "GST-Mcl-1 (UniProt Q07820)", "sequence (Q07820 1-327)": "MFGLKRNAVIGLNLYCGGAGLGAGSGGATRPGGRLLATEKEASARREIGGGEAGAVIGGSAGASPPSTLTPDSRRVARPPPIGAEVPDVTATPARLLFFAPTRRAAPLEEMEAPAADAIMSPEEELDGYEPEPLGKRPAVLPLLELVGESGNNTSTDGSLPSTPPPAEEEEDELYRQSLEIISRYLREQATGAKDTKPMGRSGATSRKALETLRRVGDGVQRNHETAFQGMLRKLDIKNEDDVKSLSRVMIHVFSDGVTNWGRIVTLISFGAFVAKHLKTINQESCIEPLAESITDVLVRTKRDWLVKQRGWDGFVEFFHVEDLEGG", "assay": "SPR (Biacore 3000), GST-Mcl-1 binding to GST-Casp8p41, mean of 3 experiments; target Mcl-1"}, "GST-Bcl-xL": {"molecular_target": "GST-Bcl-xL (UniProt Q07817)", "sequence (Q07817 1-212)": "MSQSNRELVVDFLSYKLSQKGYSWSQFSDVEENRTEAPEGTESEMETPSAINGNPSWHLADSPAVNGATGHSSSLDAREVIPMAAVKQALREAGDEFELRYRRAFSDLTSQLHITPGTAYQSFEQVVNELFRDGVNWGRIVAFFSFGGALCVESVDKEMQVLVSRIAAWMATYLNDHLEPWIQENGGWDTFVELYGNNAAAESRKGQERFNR", "assay": "SPR (Biacore 3000), GST-Bcl-xL binding to GST-Casp8p41, mean of 3 experiments; target Bcl-xL"}, "GST-Bcl-2 (human) [2]": {"molecular_target": "GST-Bcl-2 (human) (UniProt P10415)", "assay": "SPR, GST-Casp8p41 Val150Glu/Leu157Lys over immobilized GST-Bcl-2"}}}
{"substance": "GST-Bcl-2 R146A (from UniProt P10415 1-218)", "values": [{"measurement": "fold decrease in affinity against wild-type Bcl-2", "setting": "GST-Casp8p41", "value": 250, "unit": "fold"}]}
{"substance": "GST-Casp8p41 (from UniProt Q14790 1-479)", "values": [{"measurement": "Kd", "setting": "GST-Bcl-2 (human) [1]", "value": 13, "unit": "nM"}, {"measurement": "Kd", "setting": "GST-Mcl-1", "value": 8, "unit": "nM"}, {"measurement": "Kd", "setting": "GST-Bcl-xL", "value": 11, "unit": "nM"}]}
{"substance": "GST-Casp8p41 Val150Glu/Leu157Lys (from UniProt Q14790 1-479)", "values": [{"measurement": "fold decrease in affinity against wild-type Casp8p41", "setting": "GST-Bcl-2 (human) [2]", "value": "> 300", "unit": "fold"}]}
